Reference: patent US10029000B2, “Uses of IL-12 in hematopoiesis” (University of Southern California, priority 2003, dated 2018)
Entries after “also recorded” stand apart in the source; their conditions may differ.

Tested on: lethally irradiated mice
Assay: Radioprotection assay: survival of mice after total body lethal irradiation
Type: in vivo, mice (C57BL/6J)
Details: for animals with long-term survival (more than one year): 100 ng/mouse (5 ug/Kg)
Procedure: Mice received recombinant murine IL-12 (100 ng/mouse (which is about 5 ug/kg on average), intravenous injection) before (24 hours) or after (1 hour) lethal dose radiation (1000 rad). Mice in control group received equal volume of PBS buffer. Survival rate were analyzed by Kaplan-Meier method and p value was calculated using Log Rank Test.
To determine the minimum effective radioprotective dose of IL-12, different dose of IL-112 were administered to lethally irradiated animals before (24 hours before) or post (within one hour) lethal dose ionizing radiation.
IL-12 was administrated to mice at different doses 24 hours before radiation to determine if there is a dose dependent relationship between the concentration of IL-12 administration and survival from lethal irradiation.
To further explore the relationship of IL-12 hematopoietic rescue effect as it may relate to the time of administration, IL-12 was administrated to lethally irradiated animals at different time before and after the radiation. The following time points were tested: −48, −36, −24, and −12 hours before radiation, or +1, +12, +24, and +36 hours post radiation.
A study was conducted to determine if the radioprotective effect of IL-12 administration is specific and INF- ? independent. […] Also, an assessment was made to determine if there was a synergistic effect between GM-CSF and IL-12.
Mice were provided with acid water for one week before the radioprotection assay. Cytokines, diluted in phosphate buffered saline (PBS), pH 7.4, were intravenously injected into mice before or after total body lethal irradiation (TBI) at the specified times. Control group mice were injected with PBS buffer. For TBI, mice were either exposed twice to ionizing irradiation ( ? -ray from Cesium 137) at 500 rad dose with a 3 hour interval, or one time at a dose of 1000 rad in a Gammacell 40 machine from Atomic Energy of Canada LTD (Kanafa, Ontario, Canada). The ? -ray exposure rate is 1 Gy/min. […] After irradiation, mice were given water containing antibiotics. For the survival curve, the Kaplan-Meier method was used. Each experiment was repeated three or more times.

[1] = cytokine given 1 hour post lethal dose radiation

B1: IL-12: Recombinant murine interleukin 12, heterodimeric cytokine (p35+p40), purchased from R&D Systems or PeproTech (protein, UniProt P43431 23-215; P43432 23-335, looked up)
Interleukin-12 subunit alpha: RVIPVSGPARCLSQSRNLLKTTDDMVKTAREKLKHYSCTAEDIDHEDITRDQTSTLKTCLPLELHKNESCLATRETSSTTRGSCLPPQKTSLMMTLCLGSIYEDLKMYQTEFQAINAALQNHNHQQIILDKGMLVAIDELMQSLNHNGETLRQKPPVGEADPYRVKMKLCILLHAFSTRVVTINRVMGYLSSA
Interleukin-12 subunit beta: MWELEKDVYVVEVDWTPDAPGETVNLTCDTPEEDDITWTSDQRHGVIGSGKTLTITVKEFLDAGQYTCHKGGETLSHSHLLLHKKENGIWSTEILKNFKNKTFLKCEAPNYSGRFTCSWLVQRNMDLKFNIKSSSSSPDSRAVTCGMASLSAEKVTLDQRDYEKYSVSCQEDVTCPTAEETLPIELALEARQQNKYENYSTSFFIRDIIKPDPPKNLQMKPLKNSQVEVSWEYPDSWSTPHSYFSLKFFVRIQRKKEKMKETEEGCNQKGAFLVEKTSTEVQCKGGNVCVQAQDRYYNSSCSKWACVPCRVRS
animals with long-term survival (more than one year) (24 hours before lethal radiation): 95%
animals with long-term survival (more than one year) (post lethal radiation): 75%
survival difference versus control (Kaplan-Meier, Log Rank Test) (100 ng/mouse i.v., 24 hours before or 1 hour after 1000 rad, p<0.001): statistically significant; also recorded: significant better survival
Survives (30 days) (IL-12 dose 5 ng/mouse, 24 hours before radiation, 5 mice): 0
Survival rate (%) (IL-12 dose 5 ng/mouse, 24 hours before radiation, 30 days): 0%
Survives (30 days) (IL-12 dose 10 ng/mouse, 24 hours before radiation, 5 mice): 0
Survival rate (%) (IL-12 dose 10 ng/mouse, 24 hours before radiation, 30 days): 0%
Survives (30 days) (IL-12 dose 25 ng/mouse, 24 hours before radiation, 5 mice): 2
Survival rate (%) (IL-12 dose 25 ng/mouse, 24 hours before radiation, 30 days): 40%
Survives (30 days) (IL-12 dose 50 ng/mouse, 24 hours before radiation, 5 mice): 3
Survival rate (%) (IL-12 dose 50 ng/mouse, 24 hours before radiation, 30 days): 60%
Survives (30 days) (IL-12 dose 100 ng/mouse, 24 hours before radiation, 5 mice): 4
Survival rate (%) (IL-12 dose 100 ng/mouse, 24 hours before radiation, 30 days): 80%
Survives (30 days) (IL-12 dose 200 ng/mouse, 24 hours before radiation, 5 mice): 3
Survival rate (%) (IL-12 dose 200 ng/mouse, 24 hours before radiation, 30 days): 60%
Survival rate (%) [1]: 80%
radioprotective effect [1]: only cytokine tested that can protect mice from lethal dose radiation
Survives (cytokine given 1 hour post lethal dose radiation, 4-5 mice per group): 4
survival at higher dose (higher dose (up to 50 ug/kg) compared with 5 ug/kg): did not yield greater survival
Survival rate (%) (injection 1 hr after lethal irradiation): 80%
Survives (injection 1 hr after lethal irradiation, 5 mice): 4
Survival rate (%) (injection 12 hrs after lethal irradiation): 0%
Survives (injection 12 hrs after lethal irradiation, 5 mice): 0
Survival rate (%) (injection 12 hrs before lethal irradiation): 20%
Survives (injection 12 hrs before lethal irradiation, 10 mice): 2
Survival rate (%) (injection 24 hrs after lethal irradiation): 20%
Survives (injection 24 hrs after lethal irradiation, 10 mice): 2
Survival rate (%) (injection 24 hrs before lethal irradiation): 100%
Survives (injection 24 hrs before lethal irradiation, 10 mice): 10
Survival rate (%) (injection 36 hrs after lethal irradiation): 0%
Survives (injection 36 hrs after lethal irradiation, 5 mice): 0
Survival rate (%) (injection 36 hrs before lethal irradiation): 0%
Survives (injection 36 hrs before lethal irradiation, 10 mice): 0
Survival rate (%) (injection 48 hrs before lethal irradiation): 0%
Survives (injection 48 hrs before lethal irradiation, 10 mice): 0
best administration time for radioprotection (lethal dose radiation): 24 hours before or 1 hour post radiation
optimal radioprotective dose (best survival rate) (mice, lethal dose radiation): 5 µg/kg
